Measured values taken from publication PMC2708785 (Biochemistry, 2009).

Key:
AUC = target: the molecule itself; assay: AUC
crystal structure = target: the molecule itself; assay: crystal structure

B1: 2-methyl-3-hydroxypyridine-5-carboxylic acid oxygenase (MHPCO) from Mesorhizobium loti MAFF303099, with N-terminal 6xHis tag (enzyme, UniProt Q988D3 1-379, looked up)
chain: MANVNKTPGKTRRAEVAGGGFAGLTAAIALKQNGWDVRLHEKSSELRAFGAGIYLWHNGLRVLEGLGALDDVLQGSHTPPTYETWMHNKSVSKETFNGLPWRIMTRSHLHDALVNRARALGVDISVNSEAVAADPVGRLTLQTGEVLEADLIVGADGVGSKVRDSIGFKQDRWVSKDGLIRLIVPRMKKELGHGEWDNTIDMWNFWPRVQRILYSPCNENELYLGLMAPAADPRGSSVPIDLEVWVEMFPFLEPCLIEAAKLKTARYDKYETTKLDSWTRGKVALVGDAAHAMCPALAQGAGCAMVNAFSLSQDLEEGSSVEDALVAWETRIRPITDRCQALSGDYAANRSLSKGNMFTPAALEAARYDPLRRVYSWPQ
modifications: selenomethionine in place of methionine (SeMet MHPCO)
AUC
  stoichiometry N: 4
Crystal structure
  stoichiometry N: 2
